Consider three molecules from US5558865, “HIV immunotherapeutics” (Nissin Shokuhin Kabushiki Kaisha, dated 1996).

Assay [1] concerns the target T1, native HIV-1MN gp120 (HIV-1 strain MN, UniProt P05877). Briefly: Western blot.
In assay [2] the target is recombinant HIV-1MN gp120 (Agmed, Inc.) (HIV-1 strain MN, UniProt P05877). Briefly: Western blot.
Assay [3] concerns the target T2, V3 loop peptide of HIV-1 isolate MN (HIV-1 isolate MN).
T2 peptide: RIHIGPGRAFYTTKN
Nature of the assay: peptide ELISA.

Assay [4] concerns the target V3 loop peptide of HIV-1 isolate IIIB (HIV-1 isolate IIIB). Nature of the assay: peptide ELISA.
Assay [5] concerns the target V3 loop peptide of HIV-1 isolate CDC4 (HIV-1 isolate CDC4). Briefly: peptide ELISA.
The target of assay [6] is V3 loop peptide of HIV-1 isolate NY/5 (HIV-1 isolate NY/5). Nature of the assay: peptide ELISA.
The target in assay [7] is V3 loop peptide of HIV-1 isolate Z6 (HIV-1 isolate Z6). Briefly: peptide ELISA.
Assay [8] addresses V3 loop peptide of HIV-1 isolate Z2 (HIV-1 isolate Z2). Nature of the assay: peptide ELISA.
Assay [9] has as its target V3 loop peptide of HIV-1 isolate ELI (HIV-1 isolate ELI). Briefly: peptide ELISA.
For assay [10], the target named is T3, native HIV-1IIIB gp120 (HIV-1 strain IIIB, UniProt P04578). Briefly: Western blot, colorimetric.
Assay [11] deals with recombinant HIV-1IIIB gp120 (DuPont-NEN) (HIV-1 strain IIIB, UniProt P04578). Briefly: Western blot, colorimetric.
Assay [12] concerns the target T4, IIIB loop peptide Peptide 2 (HIV-1 strain IIIB).
T4 peptide: RIQRGPGR
Briefly: competition ELISA, 5 µg/ml antibody preincubated with 50 µg/ml peptide, on coated recombinant IIIB gp120.

Assay [13] addresses T5, IIIB loop peptide Peptide 3 (HIV-1 strain IIIB).
T5 peptide: IQRGPGRA
The assay is described as above.

Assay [14] deals with T6, IIIB loop peptide Peptide 4 (HIV-1 strain IIIB).
T6 peptide: QRGPGRAF
The assay is described as above.

In assay [15] the target is T1, native HIV-1MN gp120.
Assay [16] deals with T7, peptide of amino acids 302-316 of HIV-1MN gp120 (HIV-1 strain MN). Briefly: peptide ELISA.
Assay [17] concerns the target T8, peptide of amino acids 322-336 of HIV-1MN gp120 (HIV-1 strain MN).
T8 peptide: YTTKNIIGTIRQAHC
Briefly: peptide ELISA.

The target in assay [18] is V3 loop peptide of HIV-1 isolate RF (HIV-1 isolate RF). Briefly: peptide ELISA.
In assay [19] the target is T7, peptide of amino acids 302-316 of …. Briefly: peptide ELISA, 19.0 ng NM-01.
The target in assay [20] is T9, peptide of amino acids 312-326 of HIV-1MN gp120 (HIV-1 strain MN).
T9 peptide: RIHIGPGRAFYTTKN
Briefly: peptide ELISA, 19.0 ng NM-01.

Assay [21] has as its target T8, peptide of amino acids 322-336 of …. Nature of the assay: peptide ELISA, 19.0 ng NM-01.
For assay [22], the target named is T7, peptide of amino acids 302-316 of …. Briefly: peptide ELISA, 4.75 ng NM-01.
Assay [23] addresses T9, peptide of amino acids 312-326 of …. Nature of the assay: peptide ELISA, 4.75 ng NM-01.
The target in assay [24] is T8, peptide of amino acids 322-336 of …. Nature of the assay: peptide ELISA, 4.75 ng NM-01.
The target in assay [25] is T7, peptide of amino acids 302-316 of …. Briefly: peptide ELISA, 9.50 ng NM-01.
The target of assay [26] is T9, peptide of amino acids 312-326 of …. Briefly: peptide ELISA, 9.50 ng NM-01.
The target in assay [27] is T8, peptide of amino acids 322-336 of …. Briefly: peptide ELISA, 9.50 ng NM-01.
For assay [28], the target named is T3, native HIV-1IIIB gp120. Nature of the assay: immunofluorescence on slides of IIIB-infected H9 cells.
The target of assay [29] is T1, native HIV-1MN gp120. Nature of the assay: ELISA, hybridoma supernatant on membranes of MN-infected and uninfected H9 cells.

B1: monoclonal antibody P4/D10 (antibody, V domains shown)
VH: QIQLQQSGAELASPGASVTLSCKASGYTFTDHIMNWVKKRPGQGLEWIGRIFPVSGETNYNQKFMGKATFSVDRSSSTVSMVLNSLTSEDPAVYYCDLIYYDYEEDYYFDYWGQGTTLTV
VL: DIVLTQSPASLAVSLGQRATISCRASESVDDYGISFMHWYQQKLGQPPKLLIYRASNLESGIPARFSGSGSGTEFTLTINPVETDDVATYYCQQSNKDPLTFGAGTKLELKR
For B1, the binding result is recorded as “no binding” in [1]; “no binding” in [2]; “no binding” in [3]; “binds” in [4]; “no binding” in assay [5]; “no binding” in assay [6]. Moreover, the binding result in assay [7] was “no binding”; in assay [8], “no binding”; in [9] it was “no binding”; in [10], “binds”; in assay [11], “binds”; in [12], “binds”.

B2: monoclonal antibody F58/H3 (antibody, V domains shown)
VH: QIQLQQSGAELASPGASVTLSCKASGYTFTDHIMNWVKKRPGQGLEWIGRIFPVSGETNYNQKFMGKATFSVDRSSSTVSMVLNSLTSEDPAVYYCDLIYYDYEEDYYFDYWGQGTTLTV
VL: DIVLTQSPASLAVSLGQRATISCRASESVDDYGISFMHWYQQKLGQPPKLLIYRASNLESGIPARFSGSGSGTEFTLTINPVETDDVATYYCQQSNKDPLTFGAGTKLELKR
B2: the binding result in assay [1] is on record as “no binding”; in assay [2], “no binding”; in assay [3], “no binding”; in assay [4], “binds”; in [5], “no binding”; in [6], “no binding”. Moreover, the binding result in assay [7] was “no binding”; in [8], “no binding”; in assay [9], “no binding”; in assay [10], “binds”; in assay [11] it was “binds”; in assay [13] it was “binds”. Moreover, in assay [14], the binding result is on record as “binds”.

B3: monoclonal antibody NM-01 (antibody, V domains shown)
VH: QIQLKESGPAVIKPSQSLSLTCIVSGFSITSSSYCWHWIRQPPGKGLEWMGRICYEGSIDYSPSIKSRSTISRDTSLNRFFIQLSSVTNEDTAMYYCSRENHGTTTSMDYWGQGTSVTVSS
VL: DIVLTQSPASLAVSLGQRATISCRASESVDSYGNSFMHWYQQKPGQSPKLLIYVASNLESGVPARFSGSGSRTDFTLTIDPVEADDAATYYCQQNNEDPLTFGAGTKLELKR
In the case of B3, the “RIA ratio cpm inf/cpm uninf” value in [15] was determined as 9.81 ratio. The binding result is given as “no binding (tested: 19.0 ng)” in [16]; “no binding (tested: 19.0 ng)” in assay [17]; “binds” in assay [4]; “binds” in assay [18]; “binds” in assay [5]; “binds” in assay [6]. Further, the binding result is “no binding” in assay [7]; “no binding” in assay [8]; “no binding” in [9]; “binds” in assay [11]; “binds” in assay [28]; “binds” in assay [14]. The “optical density at 650 nm” value in assay [19] is 0.024 OD 650 nm; in assay [20] it was 1.14 OD 650 nm; in assay [21] it was 0.03 OD 650 nm; in assay [22], 0.024 OD 650 nm; in assay [23], 0.781 OD 650 nm; in assay [24], 0.03 OD 650 nm. In addition, the “optical density at 650 nm” value came out at 0.024 OD 650 nm in assay [25], 0.827 OD 650 nm in assay [26] and 0.028 OD 650 nm in [27]. Moreover, in assay [29], the “ELISA ratio, infected against uninfected cell membranes (Run 1)” value came out at 5.76 ratio.
